This assay has as its target T1, E. coli RecB (E. coli, UniProt P08394 1-1180).
T1 sequence (looked up): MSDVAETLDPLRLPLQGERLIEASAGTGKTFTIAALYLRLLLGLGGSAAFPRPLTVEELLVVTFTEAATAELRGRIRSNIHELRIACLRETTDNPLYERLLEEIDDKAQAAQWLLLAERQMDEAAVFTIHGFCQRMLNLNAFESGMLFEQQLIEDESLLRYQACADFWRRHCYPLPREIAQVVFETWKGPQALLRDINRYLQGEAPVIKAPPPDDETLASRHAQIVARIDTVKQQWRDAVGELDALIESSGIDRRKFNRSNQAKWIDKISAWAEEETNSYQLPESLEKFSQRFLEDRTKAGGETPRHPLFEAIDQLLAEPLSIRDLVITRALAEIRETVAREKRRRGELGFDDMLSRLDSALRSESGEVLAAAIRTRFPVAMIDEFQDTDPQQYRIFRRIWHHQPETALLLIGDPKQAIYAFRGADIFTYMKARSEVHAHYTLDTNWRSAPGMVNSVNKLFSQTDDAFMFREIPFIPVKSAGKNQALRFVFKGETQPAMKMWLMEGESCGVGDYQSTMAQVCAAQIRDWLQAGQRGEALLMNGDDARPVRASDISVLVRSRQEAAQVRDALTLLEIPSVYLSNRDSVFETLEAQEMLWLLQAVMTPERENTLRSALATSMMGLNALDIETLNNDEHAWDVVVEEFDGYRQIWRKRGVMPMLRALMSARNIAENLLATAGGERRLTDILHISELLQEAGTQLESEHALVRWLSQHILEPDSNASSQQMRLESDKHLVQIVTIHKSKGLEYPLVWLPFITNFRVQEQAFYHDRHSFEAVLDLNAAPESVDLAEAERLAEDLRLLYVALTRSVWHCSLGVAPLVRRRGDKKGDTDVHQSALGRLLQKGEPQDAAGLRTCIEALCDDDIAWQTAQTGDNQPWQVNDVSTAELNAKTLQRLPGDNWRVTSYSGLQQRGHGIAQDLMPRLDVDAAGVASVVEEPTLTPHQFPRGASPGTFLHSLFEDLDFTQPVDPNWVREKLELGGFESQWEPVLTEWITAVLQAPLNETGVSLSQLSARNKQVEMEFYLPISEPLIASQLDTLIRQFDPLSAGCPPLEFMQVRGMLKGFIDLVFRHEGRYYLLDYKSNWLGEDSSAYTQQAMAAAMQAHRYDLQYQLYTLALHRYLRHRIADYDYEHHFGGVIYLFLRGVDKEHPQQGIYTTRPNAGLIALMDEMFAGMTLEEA
In words: reconstitution from purified subunits.

B1: E. coli RecC (natural protein, UniProt P07648 1-1122, looked up)
chain: MLRVYHSNRLDVLEALMEFIVERERLDDPFEPEMILVQSTGMAQWLQMTLSQKFGIAANIDFPLPASFIWDMFVRVLPEIPKESAFNKQSMSWKLMTLLPQLLEREDFTLLRHYLTDDSDKRKLFQLSSKAADLFDQYLVYRPDWLAQWETGHLVEGLGEAQAWQAPLWKALVEYTHQLGQPRWHRANLYQRFIETLESATTCPPGLPSRVFICGISALPPVYLQALQALGKHIEIHLLFTNPCRYYWGDIKDPAYLAKLLTRQRRHSFEDRELPLFRDSENAGQLFNSDGEQDVGNPLLASWGKLGRDYIYLLSDLESSQELDAFVDVTPDNLLHNIQSDILELENRAVAGVNIEEFSRSDNKRPLDPLDSSITFHVCHSPQREVEVLHDRLLAMLEEDPTLTPRDIIVMVADIDSYSPFIQAVFGSAPADRYLPYAISDRRARQSHPVLEAFISLLSLPDSRFVSEDVLALLDVPVLAARFDITEEGLRYLRQWVNESGIRWGIDDDNVRELELPATGQHTWRFGLTRMLLGYAMESAQGEWQSVLPYDESSGLIAELVGHLASLLMQLNIWRRGLAQERPLEEWLPVCRDMLNAFFLPDAETEAAMTLIEQQWQAIIAEGLGAQYGDAVPLSLLRDELAQRLDQERISQRFLAGPVNICTLMPMRSIPFKVVCLLGMNDGVYPRQLAPLGFDLMSQKPKRGDRSRRDDDRYLFLEALISAQQKLYISYIGRSIQDNSERFPSVLVQELIDYIGQSHYLPGDEALNCDESEARVKAHLTCLHTRMPFDPQNYQPGERQSYAREWLPAASQAGKAHSEFVQPLPFTLPETVPLETLQRFWAHPVRAFFQMRLQVNFRTEDSEIPDTEPFILEGLSRYQINQQLLNALVEQDDAERLFRRFRAAGDLPYGAFGEIFWETQCQEMQQLADRVIACRQPGQSMEIDLACNGVQITGWLPQVQPDGLLRWRPSLLSVAQGMQLWLEHLVYCASGGNGESRLFLRKDGEWRFPPLAAEQALHYLSQLIEGYREGMSAPLLVLPESGGAWLKTCYDAQNDAMLDDDSTLQKARTKFLQAYEGNMMVRGEGDDIWYQRLWRQLTPETMEAIVEQSQRFLLPLFRFNQS
In the case of B1, the binding result is on record as “binds”.
